According to IntAct's records for PubMed 23219551:

B1: DNA ligase 4 (Homo sapiens), P49917 (parent)
chain: MAASQTSQTVASHVPFADLCSTLERIQKSKGRAEKIRHFREFLDSWRKFHDALHKNHKDVTDSFYPAMRLILPQLERERMAYGIKETMLAKLYIELLNLPRDGKDALKLLNYRTPTGTHGDAGDFAMIAYFVLKPRCLQKGSLTIQQVNDLLDSIASNNSAKRKDLIKKSLLQLITQSSALEQKWLIRMIIKDLKLGVSQQTIFSVFHNDAAELHNVTTDLEKVCRQLHDPSVGLSDISITLFSAFKPMLAAIADIEHIEKDMKHQSFYIETKLDGERMQMHKDGDVYKYFSRNGYNYTDQFGASPTEGSLTPFIHNAFKADIQICILDGEMMAYNPNTQTFMQKGTKFDIKRMVEDSDLQTCYCVFDVLMVNNKKLGHETLRKRYEILSSIFTPIPGRIEIVQKTQAHTKNEVIDALNEAIDKREEGIMVKQPLSIYKPDKRGEGWLKIKPEYVSGLMDELDILIVGGYWGKGSRGGMMSHFLCAVAEKPPPGEKPSVFHTLSRVGSGCTMKELYDLGLKLAKYWKPFHRKAPPSSILCGTEKPEVYIEPCNSVIVQIKAAEIVPSDMYKTGCTLRFPRIEKIRDDKEWHECMTLDDLEQLRGKASGKLASKHLYIGGDDEPQEKKRKAAPKMKKVIGIIEHLKAPNLTNVNKISNIFEDVEFCVMSGTDSQPKPDLENRIAEFGGYIVQNPGPDTYCVIAGSENIRVKNIILSNKHDVVKPAWLLECFKTKSFVPWQPRFMIHMCPSTKEHFAREYDCYGDSYFIDTDLNQLKEVFSGIKNSNEQTPEEMASLIADLEYRYSWDCSPLSMFRRHTVYLDSYAVINDLSTKNEGTRLAIKALELRFHGAKVVSCLAEGVSHVIIGEDHSRVADFKAFRRTFKRKFKILKESWVTDSIDKCELQEENQYLI

Variants of: B1
Details: with dcr1c_human DCLRE1C
V14A was tested, and the “effect of a mutation on the interaction” value was “decreasing interaction strength”. With D18H the “effect of a mutation on the interaction” value was “decreasing interaction strength”. F42A was tested, and the “effect of a mutation on the interaction” value was “disrupting interaction strength”. For F42A;F49A, the “effect of a mutation on the interaction” value was “disrupting interaction strength”. In the case of F49A, the “effect of a mutation on the interaction” value is reported as “disrupting interaction strength”.
